Measured values from patent US20220362145A1, “THERAPEUTIC HYDROGEL COMPOSITIONS” (THE UNIVERSITY OF BIRMINGHAM, priority 2018, published 2022).

Key:
[1] = biological target: T1, collagen type I (rat tail) (Rattus norvegicus, UniProt P02454+P02466); test: Collagen fibrillogenesis turbidity assay; type: biochemical
T1 construct: collagen type I (rat tail; Corning, UK); purchased Corning, UK; host or cells: rat tail (tissue-derived)
Protocol: Collagen fibrillogenesis: For the dose response curves, 75 µl of PBS was added to each well of a 96 well plate kept on ice. Varying hrDecorin doses were prepared by adding 400 μg/ml of hrDecorin to the first well and subsequently serial diluting (2-fold dilution) across the plate. Following dilution, a further 150 μl of PBS buffer was added to each well. Then, 75 μl of collagen type I (rat tail; Corning, UK) (800 μg/ml) was added to each well and incubated for 2 hours at 37° C. Subsequent absorbance readings were taken using a 405 nm plate reader. Each assay consisted of duplicate blank controls, and triplicate standard dilutions followed by triplicate sample dilutions. Kinetics of fibril formation were determined using a similar setup as the dose response, without serial dilution; incubating the samples within the plate reader, and taking data points every 2 minutes.
• Prepare diluent and reaction buffers by mixing sodium phosphate and sodium chloride and adjusting the pH to 7.4. • Add sample (Gellan fluid gel +Galacorin™ Galacorin only and Gellan only) to a 96 well plate and serial dilute using diluent buffer across the rows of the plate. • On ice, prepare collagen by mixing with cold water to a concentration of 0.8 mg/ml. • Add collagen to all wells. • Add reaction buffer to all wells and mix. • Incubate at 37° C. for 2 hours. • Read using a plate reader at 405 nm

fibrin gel = test: Matrix breakdown assay (fibrin gel); type: biochemical; settings: trans-well above fibrin gel (8.5 mg/ml), 60° C.
Protocol: […] • Add 0.9 ml of gel to an Eppendorf. • To each gel add 0.1 ml of active in PBS. • Mix well using a vortex mixer. • Refrigerate for 24 hours before testing. • 0.5 ml of fibrin gel (8.5 mg/ml) was formed in the wells of a 24 well plate. • 0.5 ml of PBS was added to each well. • 0.1 ml of gel with active was added to a trans-well insert and placed above the fibrin gel. • Samples were incubated at 60° C. to activate the proteinase K. • Images were taken at various timepoints and compared to the control fibrin gel (pbs only) and fibrin gel with proteinase k added without a fluid gel carrier.

T1 sequence (P02454 152-1207 limits assumed): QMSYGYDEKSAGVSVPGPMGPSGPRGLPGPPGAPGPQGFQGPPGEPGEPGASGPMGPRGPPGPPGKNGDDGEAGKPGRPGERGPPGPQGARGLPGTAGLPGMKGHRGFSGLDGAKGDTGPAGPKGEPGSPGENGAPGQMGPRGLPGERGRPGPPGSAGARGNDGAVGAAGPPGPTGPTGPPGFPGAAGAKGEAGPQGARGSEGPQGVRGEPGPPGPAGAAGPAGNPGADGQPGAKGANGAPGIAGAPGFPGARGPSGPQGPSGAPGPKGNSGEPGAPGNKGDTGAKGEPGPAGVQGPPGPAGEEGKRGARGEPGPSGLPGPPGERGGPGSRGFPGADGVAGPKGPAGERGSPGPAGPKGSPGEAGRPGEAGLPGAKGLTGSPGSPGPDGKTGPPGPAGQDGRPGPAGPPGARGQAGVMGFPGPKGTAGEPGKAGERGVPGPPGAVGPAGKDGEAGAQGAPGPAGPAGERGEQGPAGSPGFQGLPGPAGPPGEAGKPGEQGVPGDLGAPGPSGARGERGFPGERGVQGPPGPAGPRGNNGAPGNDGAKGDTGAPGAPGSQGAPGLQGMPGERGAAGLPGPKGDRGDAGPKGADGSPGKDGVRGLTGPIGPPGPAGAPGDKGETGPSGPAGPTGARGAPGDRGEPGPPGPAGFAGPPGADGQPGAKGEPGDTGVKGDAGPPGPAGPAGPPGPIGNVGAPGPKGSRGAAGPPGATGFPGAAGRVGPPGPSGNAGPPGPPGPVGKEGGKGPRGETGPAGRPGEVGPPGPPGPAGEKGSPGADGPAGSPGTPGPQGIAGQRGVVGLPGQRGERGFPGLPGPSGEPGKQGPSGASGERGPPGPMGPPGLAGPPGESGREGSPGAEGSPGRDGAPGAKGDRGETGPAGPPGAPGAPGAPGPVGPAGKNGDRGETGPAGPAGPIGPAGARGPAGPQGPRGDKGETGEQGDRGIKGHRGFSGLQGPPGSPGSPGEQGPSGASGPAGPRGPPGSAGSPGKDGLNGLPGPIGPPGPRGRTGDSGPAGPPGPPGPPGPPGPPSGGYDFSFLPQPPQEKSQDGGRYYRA
T1 sequence (P02466 86-1125 limits assumed): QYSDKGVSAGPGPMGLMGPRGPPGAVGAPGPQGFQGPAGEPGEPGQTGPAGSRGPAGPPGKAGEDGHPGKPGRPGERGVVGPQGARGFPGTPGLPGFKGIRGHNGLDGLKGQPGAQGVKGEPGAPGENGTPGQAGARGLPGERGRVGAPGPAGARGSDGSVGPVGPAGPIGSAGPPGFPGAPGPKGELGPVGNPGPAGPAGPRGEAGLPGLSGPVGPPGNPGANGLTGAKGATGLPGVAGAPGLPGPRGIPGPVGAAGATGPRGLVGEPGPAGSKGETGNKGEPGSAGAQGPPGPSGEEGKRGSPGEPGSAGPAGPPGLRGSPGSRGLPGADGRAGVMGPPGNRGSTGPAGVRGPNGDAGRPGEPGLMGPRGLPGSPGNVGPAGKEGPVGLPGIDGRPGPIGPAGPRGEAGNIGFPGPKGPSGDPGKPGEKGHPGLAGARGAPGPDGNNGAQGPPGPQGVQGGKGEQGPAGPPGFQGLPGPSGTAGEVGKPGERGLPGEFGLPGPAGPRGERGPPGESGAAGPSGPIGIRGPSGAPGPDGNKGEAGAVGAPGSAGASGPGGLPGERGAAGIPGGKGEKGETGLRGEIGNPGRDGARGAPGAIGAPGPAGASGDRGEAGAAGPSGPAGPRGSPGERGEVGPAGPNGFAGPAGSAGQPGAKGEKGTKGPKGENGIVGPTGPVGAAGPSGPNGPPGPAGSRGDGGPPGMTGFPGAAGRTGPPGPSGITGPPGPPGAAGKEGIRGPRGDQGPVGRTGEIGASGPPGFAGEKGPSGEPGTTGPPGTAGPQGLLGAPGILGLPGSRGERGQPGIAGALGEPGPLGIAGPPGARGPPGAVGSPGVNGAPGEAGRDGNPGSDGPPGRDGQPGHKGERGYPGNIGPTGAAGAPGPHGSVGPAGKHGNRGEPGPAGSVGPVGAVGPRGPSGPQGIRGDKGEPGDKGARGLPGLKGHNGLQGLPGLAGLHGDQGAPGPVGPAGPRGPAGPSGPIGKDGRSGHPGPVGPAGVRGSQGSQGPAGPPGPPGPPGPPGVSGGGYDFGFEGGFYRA

B1: hrDecorin: human recombinant decorin sold by Catalent Pharma Solutions under the name Galacorin™ (protein, UniProt P07585 31-359, looked up)
Decorin: DEASGIGPEVPDDRDFEPSLGPVCPFRCQCHLRVVQCSDLGLDKVPKDLPPDTTLLDLQNNKITEIKDGDFKNLKNLHALILVNNKISKVSPGAFTPLVKLERLYLSKNQLKELPEKMPKTLQELRAHENEITKVRKVTFNGLNQMIVIELGTNPLKSSGIENGAFQGMKKLSYIRIADTNITSIPQGLPPSLTELHLDGNKISRVDAASLKGLNNLAKLGLSFNSISAVDNGSLANTPHLRELHLDNNKLTRVPGGLAEHKYIQVVYLHNNNISVVGSSDFCPPGHNTKKASYSGVSLFSNPVQYWEIQPSTFRCVYVRSAIQLGNYK
effect on collagen fibrillogenesis (fibril formation) ([1]; turbidity at 405 nm vs collagen only control): slowing the onset of fibrillogenesis | critical concentration above which fibrillogenesis is inhibited ([1]; turbidity at 405 nm, 2 hours at 37° C.): 0.5 μg/ml | concentration at which minimum turbidity is achieved ([1]; turbidity at 405 nm, no further reduction above): > 10000 ng/mL

B2: Proteinase K: extracellular matrix remodelling agent proteinase K (protein, UniProt P06873 106-384, looked up)
Proteinase K: AAQTNAPWGLARISSTSPGTSTYYYDESAGQGSCVYVIDTGIEASHPEFEGRAQMVKTYYYSSRDGNGHGTHCAGTVGSRTYGVAKKTQLFGVKVLDDNGSGQYSTIIAGMDFVASDKNNRNCPKGVVASLSLGGGYSSSVNSAAARLQSSGVMVAVAAGNNNADARNYSPASEPSVCTVGASDRYDRRSSFSNYGSVLDIFGPGTSILSTWIGGSTRSISGTSMATPHVAGLAAYLMTLGKTTAASACRYIADTANKGDLSNIPFGTVNLLAYNNYQA
breakdown of fibrin gel (fibrin gel): faster
